Earlier results as cited in patent publication US20260265800A1, “NEW FUCOSYLTRANSFERASES FOR IN VIVO SYNTHESIS OF LNFP-III” (DSM IP Assets B.V., priority 2022, published 2026).

Tested on: β-galactosidase activity
Conditions: LacZ assay, cited from earlier work; for % Activity relative to PglpF: PglpF as positive reference, a range indicates results from multiple assays

Molecule	% Activity relative to PglpF	Strength
PglpT_70UTR: promoter sequence, SEQ ID NO: 27 (nucleic acid) DNA: CCATTTAGCCATAGTAAAAACATGAATTGTTTGATTTCGCGCATATTCGCTCATAATTCGAAAGTGAAACGTGATTTCATGCGTCATTTTGAACATTTTGTAAATCTTATTTAATAATGTGTGCGGCAATTCACATTTAATTTATGAATGTTTTCTTAACATCGCGGCATGCCTACAAGCATCGTGGAGGTCCGTGACTTTCACGCATACAACAAACATTAACCAAGGAGGAAACAGCT	102-240%	high (A regulatory element with an activity above 10,000 MU is considered strong)
PmglB_70UTR_SD9: promoter sequence, SEQ ID NO: 20 (nucleic acid) DNA: TGCGTCGCCATTCTGTCGCAACACGCCAGAATGCGGCGGCGATCACTAACTCAACAAATCAGGCGATGTAACCGCTTTCAATCTGTGAGTGATTTCACAGTATCTTAACAATGTGATAGCTATGATTGCACCGTGCCTACAAGCATCGTGGAGGTCCGTGACTTTCACGCATACAACAAACATTAACCAAAGGAAAAACAGCT	180-226%	high (A regulatory element with an activity above 10,000 MU is considered strong)
PmglB_70UTR_SD5: promoter sequence, SEQ ID NO: 22 (nucleic acid) DNA: TGCGTCGCCATTCTGTCGCAACACGCCAGAATGCGGCGGCGATCACTAACTCAACAAATCAGGCGATGTAACCGCTTTCAATCTGTGAGTGATTTCACAGTATCTTAACAATGTGATAGCTATGATTGCACCGTGCCTACAAGCATCGTGGAGGTCCGTGACTTTCACGCATACAACAAACATTAACCAACCGAGAAACAGCT	146-152%	high (A regulatory element with an activity above 10,000 MU is considered strong)
PmglB_70UTR_SD4: promoter sequence, SEQ ID NO: 21 (nucleic acid) DNA: TGCGTCGCCATTCTGTCGCAACACGCCAGAATGCGGCGGCGATCACTAACTCAACAAATCAGGCGATGTAACCGCTTTCAATCTGTGAGTGATTTCACAGTATCTTAACAATGTGATAGCTATGATTGCACCGTGCCTACAAGCATCGTGGAGGTCCGTGACTTTCACGCATACAACAAACATTAACCAACTAGGAAACAGCT	153%-353%	high (A regulatory element with an activity above 10,000 MU is considered strong)
PmglB_70UTR: promoter sequence, SEQ ID NO: 25 (nucleic acid) DNA: TGCGTCGCCATTCTGTCGCAACACGCCAGAATGCGGCGGCGATCACTAACTCAACAAATCAGGCGATGTAACCGCTTTCAATCTGTGAGTGATTTCACAGTATCTTAACAATGTGATAGCTATGATTGCACCGTGCCTACAAGCATCGTGGAGGTCCGTGACTTTCACGCATACAACAAACATTAACCAAGGAGGAAACAGCT	124-234%	high (A regulatory element with an activity above 10,000 MU is considered strong)
PmglB_70UTR_SD7: promoter sequence, SEQ ID NO: 24 (nucleic acid) DNA: TGCGTCGCCATTCTGTCGCAACACGCCAGAATGCGGCGGCGATCACTAACTCAACAAATCAGGCGATGTAACCGCTTTCAATCTGTGAGTGATTTCACAGTATCTTAACAATGTGATAGCTATGATTGCACCGTGCCTACAAGCATCGTGGAGGTCCGTGACTTTCACGCATACAACAAACATTAACCAAGAGCAAAACAGCT	127-173%	high (A regulatory element with an activity above 10,000 MU is considered strong)
PmglB_16UTR: promoter sequence, SEQ ID NO: 32 (nucleic acid) DNA: TGCGTCGCCATTCTGTCGCAACACGCCAGAATGCGGCGGCGATCACTAACTCAACAAATCAGGCGATGTAACCGCTTTCAATCTGTGAGTGATTTCACAGTATCTTAACAATGTGATAGCTATGATTGCACCGTTTTAACGTTGTAACCCGTATGTAACAGTGAATAATCACTTTTGCCGAGGTAACAGCGTCATAACAACAATTAAAGCCGTTTTCTGGAGCGTTACCGGGCATGGAAGAACGAATTTTAAAAAGTGAGCTTCGGCGTTCAGTAACACTTCATTAACTCTACTGCCCCGCCGAGCATTTATCTCAAGCACTACCCTGCATAAGCAAGGAGGAAACAGCT	78-171%	high (A regulatory element with an activity above 10,000 MU is considered strong)
PglpF_SD4: promoter sequence, SEQ ID NO: 23 (nucleic acid) DNA: ATGCGCAAATGCGGCACGCCTTGCAGATTACGGTTTGCCACACTTTTCATCCTTCTCCTGGTGACATAATCCACATCAATCGAAAATGTTAATAAATTTGTTGCGCGAATGATCTAACAAACATGCATCATGTACAATCAGATGGAATAAATGGCGCGATAACGCTCATTTTATGACGAGGCACACACATTTTAAGTTCGATATTTCTCGTTTTTGCTCGTTAACGATAAGTTTACAGCATGCCTACAAGCATCGTGGAGGTCCGTGACTTTCACGCATACAACAAACATTAACCAACTAGGAAACAGCT	140-161%	high (A regulatory element with an activity above 10,000 MU is considered strong)
PglpF_SD5: promoter sequence, SEQ ID NO: 30 (nucleic acid) DNA: ATGCGCAAATGCGGCACGCCTTGCAGATTACGGTTTGCCACACTTTTCATCCTTCTCCTGGTGACATAATCCACATCAATCGAAAATGTTAATAAATTTGTTGCGCGAATGATCTAACAAACATGCATCATGTACAATCAGATGGAATAAATGGCGCGATAACGCTCATTTTATGACGAGGCACACACATTTTAAGTTCGATATTTCTCGTTTTTGCTCGTTAACGATAAGTTTACAGCATGCCTACAAGCATCGTGGAGGTCCGTGACTTTCACGCATACAACAAACATTAACCAACCGAGAAACAGCT	82-91%	high (A regulatory element with an activity above 10,000 MU is considered strong)
PglpF_SD10: promoter sequence, SEQ ID NO: 29 (nucleic acid) DNA: ATGCGCAAATGCGGCACGCCTTGCAGATTACGGTTTGCCACACTTTTCATCCTTCTCCTGGTGACATAATCCACATCAATCGAAAATGTTAATAAATTTGTTGCGCGAATGATCTAACAAACATGCATCATGTACAATCAGATGGAATAAATGGCGCGATAACGCTCATTTTATGACGAGGCACACACATTTTAAGTTCGATATTTCTCGTTTTTGCTCGTTAACGATAAGTTTACAGCATGCCTACAAGCATCGTGGAGGTCCGTGACTTTCACGCATACAACAAACATTAACCAACTGAGAAACAGCT	88-96%	high (A regulatory element with an activity above 10,000 MU is considered strong)
PglpF_SD8: promoter sequence, SEQ ID NO: 31 (nucleic acid) DNA: ATGCGCAAATGCGGCACGCCTTGCAGATTACGGTTTGCCACACTTTTCATCCTTCTCCTGGTGACATAATCCACATCAATCGAAAATGTTAATAAATTTGTTGCGCGAATGATCTAACAAACATGCATCATGTACAATCAGATGGAATAAATGGCGCGATAACGCTCATTTTATGACGAGGCACACACATTTTAAGTTCGATATTTCTCGTTTTTGCTCGTTAACGATAAGTTTACAGCATGCCTACAAGCATCGTGGAGGTCCGTGACTTTCACGCATACAACAAACATTAACCAAGAGAAAAACAGCT	81-82%	high (A regulatory element with an activity above 10,000 MU is considered strong)
PglpF_SD9: promoter sequence, SEQ ID NO: 33 (nucleic acid) DNA: ATGCGCAAATGCGGCACGCCTTGCAGATTACGGTTTGCCACACTTTTCATCCTTCTCCTGGTGACATAATCCACATCAATCGAAAATGTTAATAAATTTGTTGCGCGAATGATCTAACAAACATGCATCATGTACAATCAGATGGAATAAATGGCGCGATAACGCTCATTTTATGACGAGGCACACACATTTTAAGTTCGATATTTCTCGTTTTTGCTCGTTAACGATAAGTTTACAGCATGCCTACAAGCATCGTGGAGGTCCGTGACTTTCACGCATACAACAAACATTAACCAAAGGAAAAACAGCT	73-93%	middle (what is in between has intermediate strength)
PglpF_SD6: promoter sequence, SEQ ID NO: 35 (nucleic acid) DNA: ATGCGCAAATGCGGCACGCCTTGCAGATTACGGTTTGCCACACTTTTCATCCTTCTCCTGGTGACATAATCCACATCAATCGAAAATGTTAATAAATTTGTTGCGCGAATGATCTAACAAACATGCATCATGTACAATCAGATGGAATAAATGGCGCGATAACGCTCATTTTATGACGAGGCACACACATTTTAAGTTCGATATTTCTCGTTTTTGCTCGTTAACGATAAGTTTACAGCATGCCTACAAGCATCGTGGAGGTCCGTGACTTTCACGCATACAACAAACATTAACCAAGAGCTAAACAGCT	46-47%	middle (what is in between has intermediate strength)
PglpA_70UTR: promoter sequence, SEQ ID NO: 26 (nucleic acid) DNA: GAAAACATTCATAAATTAAATGTGAATTGCCGCACACATTATTAAATAAGATTTACAAAATGTTCAAAATGACGCATGAAATCACGTTTCACTTTCGAATTATGAGCGAATATGCGCGATGCCTACAAGCATCGTGGAGGTCCGTGACTTTCACGCATACAACAAACATTAACCAAGGAGGAAACAGCT	102-179%	high (A regulatory element with an activity above 10,000 MU is considered strong)
PglpF_SD7: promoter sequence, SEQ ID NO: 34 (nucleic acid) DNA: GCGGCACGCCTTGCAGATTACGGTTTGCCACACTTTTCATCCTTCTCCTGGTGACATAATCCACATCAATCGAAAATGTTAATAAATTTGTTGCGCGAATGATCTAACAAACATGCATCATGTACAATCAGATGGAATAAATGGCGCGATAACGCTCATTTTATGACGAGGCACACACATTTTAAGTTCGATATTTCTCGTTTTTGCTCGTTAACGATAAGTTTACAGCATGCCTACAAGCATCGTGGAGGTCCGTGACTTTCACGCATACAACAAACATTAACCAAGAGCAAAACAGCT	47-57%	middle (what is in between has intermediate strength)
